Experimental data reported in article PMC6954729, “Type I fatty acid synthase trapped in the octanoyl‐bound state” (Protein Science : A Publication of the Protein Society, 2020).

Target: the molecule itself
Assay: crystal structure; crystals grown in 0.2 M potassium-sodium tartrate, 25% (w/v) PEG 3350 at 20°C, soaked with octanoyl-CoA for up to 2 min; 2.7 Å; four chains (A-D) in the asymmetric unit

B1: murine KS-MAT didomain (condensing part of murine Type I fatty acid synthase), octanoyl-bound (domain or fragment)
chain: EEVVIAGMSGKLPESENLQEFWANLIGGVDMVTDDDRRWKAGLYGLPKRSGKLKDLSKFDASFFGVHPKQAHTMDPQLRLLLEVSYEAIVDGGINPASLRGTNTGVWVGVSGSEASEALSRDPETLLGYSMVGCQRAMMANRLSFFFDFKGPSIALDTACSSSLLALQNAYQAIRSGECPAALVGGINLLLKPNTSVQFMKLGMLSPDGTCRSFDDSGSGYCRSEAVVAVLLTKKSLARRVYATILNAGTNTDGSKEQGVTFPSGEVQEQLICSLYQPAGLAPESLEYIEAHGTGTKVGDPQELNGITRSLCAFRQAPLLIGSTKSNMGHPEPASGLAALTKVLLSLEHGVWAPNLHFHNPNPEIPALLDGRLQVVDRPLPVRGGNVGINSFGFGGSNVHVILQPNTRQAPAPTAHAALPHLLHASGRTLEAVQDLLEQGRQHSQDLAFVSMLNDIAATPTAAMPFRGYTVLGVEGRVQEVQQVSTNKRPLWFICSGMGTQWRGMGLSLMRLDSFRESILRSDEAVKPLGVKVSDLLLSTDERTFDDIVHAFVSLTAIQIALIDLLTSVGLKPDGIIGHSLGEVACGYADGCLSQREAVLAAYWRGQCIKDAHLPPGSMAAVGLSWEECKQRCPAGVVPACHNSEDTVTISGPQAAVNEFVEQLKQEGVFAKEVRTGGLAFHSYFMEGIAPTLLQALKKVIREPRPRSARWLSTSIPEAQWQSSLARTSSAEYNVNNLVSPVLFQEALWHIPEHAVVLEIAPHALLQAVLKRGVKSSCTIIPLMKRDHKDNLEFFLTNLGKVHLTGINVNPNALFPPVEFPAPRGTPLISPHIKWDHSQTWDVPVAEDFPN
modifications: octanoyl covalently bound to C161 (KS, all four chains of the asymmetric unit); octanoyl covalently bound to S581 (MAT, chain D only)
notes: Type I fatty acid synthase (FAS), murine; condensing part with KS, linker domain (LD) and MAT; residues 1-407 and 824-852 (KS) and 488-806 (MAT) are named in superpositions; Wild type; also called murine FAS KS-MAT didomain; Wildtype soaked with octanoyl-CoA; source: E. coli BL21 Gold (DE3), purified (Ni-NTA, Strep-Tactin, SEC)
binding result: binds
